# Laboratory results: publication PMC10542344 (2023)
# Substitutions are numbered along the chain they refer to.
# B1: BDG11.001 (clone 11.4C_11.001 as soluble human IgG1) (antibody, V domains shown)
# VH: EVQLVQSGAEVKKPGESLKISCKGSGYSFTSYWIGWVRQMPGKGLEWMGIIYPSDSDTRYSPSFQGQVTISADKSISTAYLQWSSLKASDTAMYYCARYPNYGAFDIWGQGTMVTVSS
# VL: EIVLTQSPATLSLSPGERATLSCRASQSVWSYLAWYQQKPGQAPRLLIYDASNRATGIPARFSGSGSGTDFTLTISSLEPEDFAVYYCQQYFYWGWPFGQGTKLEIK
# B2: BDG11.007 (human IgG1) (antibody, V domains shown)
# VH: B1 VH
# VL: B1 VL with Y93N
# B3: BDG11.004 (human IgG1) (antibody, V domains shown)
# VH: B1 VH
# VL: B1 VL with W30S
# B4: BDG11.003 (human IgG1) (antibody, V domains shown)
# VH: B1 VH
# VL: B1 VL with W30F
# B5: BDG11.006 (human IgG1) (antibody, V domains shown)
# VH: B1 VH
# VL: B1 VL with W94N
# Target: T1, human IL-17A (recombinant) (human, UniProt Q16552 24-155)
# Experiment: SPR
# T1 sequence (Q16552 24-155): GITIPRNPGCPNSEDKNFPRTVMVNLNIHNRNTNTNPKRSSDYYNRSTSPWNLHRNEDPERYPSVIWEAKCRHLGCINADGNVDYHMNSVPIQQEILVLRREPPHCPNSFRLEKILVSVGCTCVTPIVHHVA
row,koff [s⁻¹],Binder
1,0.000634,B1

# Target: T1, human IL-17A (recombinant)
# Experiment: SPR
# Remark: another data set of the same source
row,Kd [nM],Binder
1,2.61,B2
2,8.69,B3
3,0.935,B4
4,0.697,B5

# Target: T1, human IL-17A (recombinant)
# Experiment: SPR
# Remark: another data set of the same source
row,koff [s⁻¹],Binder
1,0.0045,B2
2,0.00221,B3
3,0.000641,B4
4,0.0009,B5
